Experimental data from US20180280496A1.
Where two headings read alike, the source gives them in different places.

Legend:
[1] = target: T1, A*03:01 (human), P04439; conditions: modification not given
T1 chain: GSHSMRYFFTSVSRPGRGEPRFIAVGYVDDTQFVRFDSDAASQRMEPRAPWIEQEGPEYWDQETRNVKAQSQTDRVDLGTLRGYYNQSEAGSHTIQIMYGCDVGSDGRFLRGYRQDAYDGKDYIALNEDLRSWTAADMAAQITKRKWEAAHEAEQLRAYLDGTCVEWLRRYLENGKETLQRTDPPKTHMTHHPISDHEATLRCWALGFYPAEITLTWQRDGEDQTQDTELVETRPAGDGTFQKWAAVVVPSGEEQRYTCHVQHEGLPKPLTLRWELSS

[2] = target: A*11:01 (human), P04439; conditions: modification not given
[3] = target: T1, A*03:01 (human), P04439; conditions: modification not given
[4] = target: A*11:01 (human), P04439; conditions: modification not given; remark: listed apart in the source
[5] = target: HLA-A*32:01; conditions: chains peptide; modification not given
[6] = target: HLA-B*40:01; conditions: chains peptide; modification not given
[7] = target: A*03:01 (human), P04439; conditions: modification not given; remark: listed apart in the source
[8] = target: A*11:01 (human), P04439; conditions: modification not given; remark: listed apart in the source
[9] = target: A*03:01 (human), P04439; test: ProImmune REVEAL MHC class I-peptide binding assay
[10] = target: A*11:01 (human), P04439; test: ProImmune REVEAL MHC class I-peptide binding assay
[11] = target: HLA-B*40:01; conditions: chains peptide; modification not given; remark: listed apart in the source
[12] = target: HLA-A*32:01; conditions: chains peptide; modification not given; remark: listed apart in the source

ALKINWYRK [SEQ ID NO: 311 serotype 3]
IC50 [1]: 193 nM | IC50 [2]: 376 nM

QLKLNWFKK [SEQ ID NO: 311 serotype 2]
IC50 [3]: 151 nM | IC50 [4]: 778 nM

KQWFLDLPL [SEQ ID NO: 310 serotype 4]
IC50 [5]: 8 nM | IC50 [6]: 398 nM

ALKLSWFKK [SEQ ID NO: 311 serotype 1]
IC50 [7]: 42 nM | IC50 [8]: 59 nM

MCHATFTMR (modifications not checked) […]
REVEAL score at 0 h [9]: 86.8 | REVEAL score at 0 h [10]: 91

KQWFLDLPL [SEQ ID NO: 310 serotype 1]
IC50 [11]: 398 nM | IC50 [12]: 8 nM
